A word on the EC50: it is the concentration that produces a half-maximal response. Lower therefore signals greater potency.

We go through 20 molecules from US20250382354A1 (INSTITUTE FOR RESEARCH IN BIOMEDICINE IRB, published 2025).

Sequences and labels used below:
B1: fp.011 (antibody, V domains shown)
VH: EVQLLESGGGLVQPGGSLRLSCAGSGFTFNNYAMTWVRQAPGRGLEWVSAISGSGGSSHYADSVKGRFTITRDNSKNTLYLQMNSLRAEDTAVYYCAFIDYYSGWSYYYGLDVWGQGTTVTVSS
VL: EIVLTQSPATLSLSPGERATLSCRASQGVRTYVAWYQQKPGQAPRLLIYDASNRATGIPARFSGSGSGTDFTLTISSLEPEDFAVYYCQQRYNWPLCSFGQGTKLEIK
B2: fp.005 (antibody, V domains shown)
VH: VQLVESGGGVVQPGNSLRLSCAASGFRFNNYAMHWVRQAPGKGLEWVAIISYEARNEKYADSVKGRFSISRDNAKNTLYLQMNSLRADDTGVYYCARDLFLSDYDTSGYDRTRGGFDYWGQGALVTVSS
VL: EIVMTQSPATLSVSPGERATLSCRASQSVSNGLAWYQHRFGQPPRLLIYGASTRATGIPTRFSGSGSGTEFTLTISSLQSEDFAVYYCQQYDDWPLITFGGGTKVEIK
B3: fp.008 (antibody, V domains shown)
VH: VQLVESGGGVVQPGRSLRLSCRASGFRFNNYAMHWVRQAPGKGLEWVAIISYEARNEKYAASVKGRFSISRDNAKNTLYLQMNSLRPEDTAIYYCARDVFLSDYDQSGYDVTRGGFDYWGQGTLVTVSS
VL: EIVMTQSPATLSVSPGESATLSCRASQSVSSSLAWYQHKFGQAPRLLIYGASTRATGIPDRFSGSGSGMEFTLTISSLQSEDVAIYYCQQYGDWPLVTFGGGTKVEIK
B4: fp.006 (antibody, V domains shown)
VH: VQLVESGGGVVQPGGSLRLSCAASGFNFNNYALHWVRQAPGKGLEWVAIISYEARNKKYGVSVMGRFSISRDNSKSIMYLEMNSLRVEDTGVYYCARDLFLSDYDRSGYDPTRGGFDHWGQGTLVTVSS
VL: B3 VL with S18R, K39R, Y49S, D60G, M69T, I85V
B5: fp.009 (antibody, V domains shown)
VH: VQLVESGGGVVQPGTSLTLSCEASGFTFSNYAMHWVRQAPGKGLEWVAIISFDTRNKKFAGSVQGRFSISRDNAKNSIYLQMNNLRPEDTGIYYCARDVFLSDYDSRGFDRTRGGFDYWGQGTLVTVSS
VL: B3 VL with S18K, Q27E, S30G, H38Q, F40L, D60A, M69A, V83F, V97L
B6: fp.002 (antibody, V domains shown)
VH: VQLVESGGGVVQPGTSLRLSCAGSGFNFDNYAIHWVRQAPGQGLEWVAIISYEARNKKYAGSVTGRFSISRDNSKSMVYLQMDSLRGEDTAVYYCARDLFLSDYDRSGYDPTRGGFDLWGQGTLVTVSS
VL: B3 VL with S18R, F40L, D60G, M69T
B7: fp.010 (antibody, V domains shown)
VH: EVQLLESGGGLVQPGGSLRLSCAASGFTFSTYAMNWVRQAPGKGLEWVSAISSSGLSTQYADSVRGRFTISRDTSKNTLYLHMNSLRAGDTAVYYCAKVEYSGYDPRGPFDSWGQGTLVTVSS
VL: DIQMTQSPSTLSASVGDRVTITCRASQSISGWLAWYQQKPGRAPKLLIYKASSLERGVPSRFSGSGSGTEFTLTISSLQPDDFATYYCQEYSSYPLCTFGQGTKLEIK
B8: fp.004 (antibody, V domains shown)
VH: VQLVESGGGVVQPGTSLRLSCVASGFTFSNYAMHWVRQAPGKGLEWVAIISFDTRNTASAASVKGRFNISRDNSKNSLYLQMNSLRPEDTGVYYCARDLFLSDYDSRGYDPITGGFDCWGQGTLVTVSS
VL: EIVMTQSPAALSVSPGEGATLSCRASQSVGSRLAWYQQKLGRPPRLLIYGASTRATGIPARFSGSGSGTEFTLTISSLQSEDFAVYYCQQYNDWPLLTFGGGTKVKIK
B9: fp.001 (antibody, V domains shown)
VH: VQLVESGGGVVQPGRPLRLSCSGSGFIFSNYAMHWVRQAPGKGLEWVAIISFDARNKRYADSVEGRFTISRDNSKNILYLQMNSLRLEDSAVYFCARDLFLSDYDNGVYDPTRGGFDYWGQGTLVTVSS
VL: EIVMTQSPATLSLSPGERATLSCRASQSVNNRLAWYQQKLGQPPRLLISGASTRATGIPARFTGSGSGTEFTLTISSLQSEDFAVYYCQQYHDWPLLSFGGGTKVEIK
B10: fp.003 (antibody, V domains shown)
VH: VQLVESGGGVVQPGTSLRLSCTASGFSFSNYAMHWVRQAPGKGLEWVAIISFDTRNKEFADSVKGRFSISRDNSKNSLNLQMNSLRPEDTGVYYCARDLFLSDYDSRGYEPSRGGFDYWGQGTLVTVSS
VL: B8 VL with A10T, G18R, G30S, R32S, R42Q, Q79K, F83S, T98S, K106E
B11: hr2.023 (antibody, V domains shown)
VH: QVQLVQSGAEVKKPGASVKVSCRASENIFSDSYLHWVRQAPGQGLEWMGIITPSGDKTFYAQQFQGRLTMTRDTPTNTLHMDLRGLTSADTAIYYCARQATKGGWDYWGQGTLVTVSS
VL: EIVLTQSPGTLSLSPGESATLSCRASQSVTRNYLAWYQQQPGQAPRLLIYGASNRATGVPDRFSGSGSGTDFTLTISRLEPEDFAVYYCQQYGSSPPTFIFGPGTKVDIK
B12: hr2.025 (antibody, V domains shown)
VH: EVQLVQSGAEVKKPGESLKISCKGSGYSFTNYWIAWVRLMPGKGLEWMGFIFPGDSDTRYSPSFQGQVTISADKSISTAYLQWSSLKASDTAIYYCARRRGNSGNHDPYGMDVWGHGTTVTVSS
VL: not shown
B13: hr2.027 (antibody, V domains shown)
VH: B12 VH with T30A, S77T, Q82H, Y95F
VL: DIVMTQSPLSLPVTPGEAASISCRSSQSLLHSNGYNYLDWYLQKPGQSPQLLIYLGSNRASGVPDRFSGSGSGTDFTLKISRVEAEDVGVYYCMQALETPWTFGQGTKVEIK
B14: hr2.016 (antibody, V domains shown)
VH: EVQLLESGGGLVQPGGSLRLSCAASGFMFSKYAMTWVRQTPGKGLEWVSVISGGGGSTYYADSVKGRFTISRDNSKNTLYLQMNSLRAEDTAVYYCAKLLVVFVIDYWGQGALVTVSS
VL: EIVLTQSPGTLSLSPGERATLFCRASQSVSSNLAWYQQKPGRAPRLLISGASSRATGIPDRFSGSGSGTDFTLTISRLEPEDFAVYYCQQYGSSPPTFGQGTKVEIK
B15: hr2.012 (antibody, V domains shown)
VH: QVQLVQSGAEVKKPGASVKVSCKASGYTFTSHYIHWVRQAPGQGLEWMGIIKPSGGNTIYAQTFQGRVTMTRDTSTSTVYMELRSLTSDDTAVYYCARDQDHGLQRWGQGTLVTVSS
VL: QSVLTQPPSVSAPPGQKVTISCSGSSSNIGNNFVSWYQQLPGTAPKLLIYDNIERPSGIPDRFSGSRSGTSATLGITGLQTGDEADYYCGTWDTSLGAWVFGGGTKVTVL
B16: hr2.013 (antibody, V domains shown)
VH: QVQLVQSGAEVKKPGASVKISCKASGYTFTNNYMNWVRQAPGQGLEWMGIIKPSSGSTIYAHKFQGRVTMTRDTSTSTVYMEVRSLTSEDTAVYYCARDQDHGLQNWGQGTLVTVSS
VL: B15 VL with P13A, P14S, S21Y, G30A, N31S, L40F, I53N, E54Q, V107L
B17: hr2.021 (antibody, V domains shown)
VH: QVQLVQSGAEVKKPGASVKVSCKASEAIFSGSYLHWVRQAPGQGLEWMGIITPSGDKTFYAQRFQGRLTMTRDTSTNTLHMHLSGLNSEDTAMYYCARQADKGGWDYWGQGTLVTVSS
VL: B11 VL with S18R, R31S, L34V, Q40K, N54T, V59I, S66G, S77T, I100T
B18: hr2.024 (antibody, V domains shown)
VH: QVQLVQSGAEVKKPGASVKVSCKASEDIFTDSYLHWVRQAPGQGLEWMGIITPSGDKTFYAQQFQGRLTMTRDPSTNTLYMFLSGLRSDDTAMYFCARQAEKGGWDYWGHGTLVTVSS
VL: B11 VL with E17Q, S18R, A25S, S28T, V29I, R31S, Q40R, N54I, V59I
B19: hr2.017 (antibody, V domains shown)
VH: EVQLVESGGGLVQPGGSLRLSCAVSGFAFSSSWMHWIRQAPGRGLVWVSRINRDGSTTDYADSVKGRFTISRDNAKATLYLQMNSLRAEDTAVYYCATMGFDYWGQGALVTVSS
VL: DIVMTQSPDSLAVSLGERATINCKSSQNVLYSSNNKNHLSWYQQKPGQPPKLLIYWASTRKSGVPDRFSGSGSGTDFTLTINSLQAEDVAVYYCQQYFSTPNTFGQGTKLEIK
B20: hr2.015 (antibody, V domains shown)
VH: QVQLVQSGAEVKKPGASVKVSCKASGYTFSSYYVNWVRQAPGQGLEWLGIINRSGSSTIYAQKFQGRVTMTRDTSTSTVYLELSSLRSEDTAVYYCARDQDHALHWGQGTLVTVSS
VL: B15 VL with P13A, N31S, F33Y, I53S, G97S, V107L

Positions count from the first letter of the chain named.

The first experiment concerns the target SADS FP peptide (SADS). The experiment can be described thus: peptide ELISA.
The molecule B1 showed an EC50 of 0.0276 µg/mL.
Same read-out and setting: in the case of B2 it was 0.0252 µg/mL.
The same measure, in the same setting: in the case of B3 it was 0.024 µg/mL.
On the same count and under the same terms, in the case of B4 it was 0.0154 µg/mL; in that of B5, 0.0247 µg/mL; in that of B6, 0.0252 µg/mL.
Take B7: the concentration giving a half-maximal response (EC50) was 0.0644 µg/mL.
Turning to B8, the EC50 came out at 0.0276 µg/mL.
Still for that read-out and setting: in the case of B9 it was 0.0255 µg/mL; in that of B10, 0.0305 µg/mL.

In the next experiment the target is Eidolon HR2 peptide (Eidolon). As to the kind of experiment: peptide ELISA.
Molecule B11 registered an EC50 of 0.126 µg/mL.
Same read-out and setting: for B12 the value was 2.92 µg/mL; for B13, 1.21 µg/mL.
Same read-out and setting: for B14 the value was 0.033 µg/mL.
The same measure, in the same setting: in the case of B15 it was 0.463 µg/mL; in that of B16, 0.186 µg/mL.

Another experiment deals with HKU24 HR2 peptide (HKU24). The experiment can be described thus: peptide ELISA.
In turn, B17 showed an EC50 of 0.0195 µg/mL.
Same read-out and setting: for B11 the value was 0.0124 µg/mL; for B18, 0.0218 µg/mL.
Still for that read-out and setting: for B12 the value was 0.0719 µg/mL; for B13, 0.0919 µg/mL.
Consider B14, for which the EC50 came out at 0.00958 µg/mL.
The same measure, in the same setting: for B19 the value was 0.0176 µg/mL.
On the same count and under the same terms, in the case of B15 it was 0.0249 µg/mL.
On the same count and under the same terms, for B20 the value was 0.0482 µg/mL; for B16, 0.027 µg/mL.

The next experiment deals with T1, HCoV-229E S ectodomain (HCoV-229E).
T1 construct: range 17-1142
As to the kind of experiment: ELISA on coated S. In general terms: In an ELISA, binding on a coated surface is turned into a signal by an enzyme label.
On to B1, for which a half-maximal response (EC50) required 0.151 µg/mL.
Same read-out and setting: in the case of B2 it was 0.0416 µg/mL.
Still for that read-out and setting: for B3 the value was 0.0482 µg/mL; for B4, 0.0349 µg/mL.
As to B5, the EC50 stood at 0.0285 µg/mL.
On the same count and under the same terms, for B6 the value was 0.04 µg/mL.
On the same count and under the same terms, for B8 the value was 0.037 µg/mL; for B9, 0.028 µg/mL; for B10, 0.0443 µg/mL.

The next experiment deals with C-terminally truncated SARS-CoV-2 S protein (pSARS-CoV2-Strunc), ancestral (SARS-CoV-2, UniProt P0DTC2 14-1273). As to the kind of experiment: cell-based or functional assay.
As for B17, the “Ancestral Pseudovirus IC50” value is 3.02 µg/mL.
On the same count and under the same terms, in the case of B18 it was 0.301 µg/mL; in that of B2, 9.09 µg/mL.
B3: the “Ancestral Pseudovirus IC50” value was 3.56 µg/mL.
Still for that read-out and setting: for B5 the value was 0.873 µg/mL; for B6, 16.1 µg/mL.
On the same count and under the same terms, for B8 the value was 7.84 µg/mL.
Regarding B14, the “Ancestral Pseudovirus IC50” value turned out to be 0.01 µg/mL and the “Ancestral Pseudovirus IC50 (on cells with [not given])” value was determined as 0.012 µg/mL.
For the molecule B19, the “Ancestral Pseudovirus IC50” value is 0.542 µg/mL.
With B15, the “Ancestral Pseudovirus IC50” value came to 1.72 µg/mL.
In the case of B20, the “Ancestral Pseudovirus IC50” value came out at 3.83 µg/mL.
The same measure, in the same setting: for B9 the value was 2.19 µg/mL.
Same read-out and setting: in the case of B10 it was 9.26 µg/mL.
